The target of experiment [1] is p38b mitogen-activated protein kinase (Drosophila melanogaster) (UniProt O61443).
For experiment [2] the target is unchanged. The source holds these as a separate data set.
For experiment [3] the target is unchanged. This is another data set of the same source.

UniProt O61443, sequence (O61443 whole entry): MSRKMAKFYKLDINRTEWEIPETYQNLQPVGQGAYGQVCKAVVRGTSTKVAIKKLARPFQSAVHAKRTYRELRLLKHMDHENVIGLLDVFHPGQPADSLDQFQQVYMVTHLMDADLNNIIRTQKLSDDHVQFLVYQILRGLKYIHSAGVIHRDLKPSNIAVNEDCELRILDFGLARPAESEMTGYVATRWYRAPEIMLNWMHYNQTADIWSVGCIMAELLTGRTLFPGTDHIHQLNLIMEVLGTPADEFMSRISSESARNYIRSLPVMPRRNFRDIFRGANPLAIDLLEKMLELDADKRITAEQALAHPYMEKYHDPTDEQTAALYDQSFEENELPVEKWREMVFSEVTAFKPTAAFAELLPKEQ

For DmGSTO1 (enzyme), the p38b kinase activity toward Jun with the GST at 1:1 molar ratio (ADP Quest assay), fold against the reaction without GST in experiment [1] was 2 fold. In addition, the GST conjugating activity toward CDNB after 5 min with p38b at 1:1 molar ratio, percent increase against no p38b in experiment [2] came out at 58%.
As to DmGSTO2a (enzyme), the GST conjugating activity toward CDNB after 5 min with p38b at 1:1 molar ratio, percent increase against no p38b in experiment [2] turned out to be 26%.
Regarding DmGSTO3 (enzyme), in experiment [1], the p38b kinase activity toward Jun with the GST at 1:1 molar ratio (ADP Quest assay), fold against the reaction without GST came out at 1.6 fold. Further, the GST thiol transferase activity toward HED after 5 min with p38b at 1:1 molar ratio, percent change (a decrease by the discussion) against no p38b in experiment [2] was determined as 14%.
Regarding DmGSTT2 (enzyme), in experiment [1], the p38b kinase activity toward ATF2 with the GST at 1:1 molar ratio (ADP Quest assay), fold against the reaction without GST was 3.1 fold and the p38b kinase activity toward Jun with the GST at 1:1 molar ratio (ADP Quest assay), fold against the reaction without GST stood at 4.3 fold. Also, the GST conjugating activity toward CDNB after 5 min with p38b at 1:1 molar ratio, percent increase against no p38b in experiment [2] was 14%.
With DmGSTT3b (enzyme), in experiment [1], the p38b kinase activity toward ATF2 with the GST at 1:1 molar ratio (ADP Quest assay), fold against the reaction without GST was 3.4 fold and the p38b kinase activity toward Jun with the GST at 1:1 molar ratio (ADP Quest assay), fold against the reaction without GST is 7.4 fold. Also, the GST conjugating activity toward CDNB after 5 min with p38b at 1:1 molar ratio, percent decrease against no p38b in experiment [2] stood at 84%. Further, in experiment [3], the p38b kinase activity toward ATF2 with DmGSTT3b, fold against p38b with DmGSTT3a was 3.1 fold and the p38b kinase activity toward Jun with DmGSTT3b, fold against p38b with DmGSTT3a was found to be 6.9 fold.

These data come from paper PMC4207522, “Interaction of Omega, Sigma, and Theta glutathione transferases with p38b mitogenactivated protein kinase from the fruit fly, Drosophila melanogaster” (Journal of Insect Science, 2014).
